Target: eEGFRt (modified EGFRt on edited T cells; variant not specified) (human)
Assay: cell-based or functional assay

Question: Which depletion of EGFRt-expressing lymphocytes after 3 days in vitro (flow cytometry), 5 nM and 1 nM does the source give for “αEGFR-SAP immunotoxin (biotinylated Cetuximab antibody combined with streptavidin-SAP conjugate, 1:1 molar ratio)” here?
Answer: Its depletion of EGFRt-expressing lymphocytes after 3 days in vitro (flow cytometry), 5 nM and 1 nM is 50%.

Question: What about the reduction of eEGFRt+ cells after in vitro treatment (flow cytometry) of the same substance?
Answer: Its reduction of eEGFRt+ cells after in vitro treatment (flow cytometry) is 1.8 fold.

Source: US20230174622A1
